Reference: article PMC11257031 (Archives of biochemistry and biophysics, 2023)

Molecular target: the molecule itself
Assay: SEC

B1: Zymomonas mobilis pyruvate kinase (enzyme, UniProt O86020 1-475, looked up)
chain: MTEGLFPRGRKVRVVSTLGPASSTAEQIRDRFLAGADVFRINMSHGTHDEKKVIVDNIRALEKEFNRPTTILFDLQGPKLRVGDFKEGKVQLKEGQTFTFDQDPTLGDETRVNLPHPEIFKALDKGHRLLLDDGKIVVRCVESSPTKIVTRVEVPGPLSDHKGFNVPDVVIPLAALTPKDRKDLDFALKEKADWVALSFVQRVEDVIEAKELIKGRAPLLVKLEKPAAIENLESILAATDAVMVARGDLGVECLPESVPPTQKRIVERSRQLGKPVVVATAMLESMIKAPAPTRAEVSDVANAIYEGADGIMLSAESAAGDWPHEAVNMMHRIASYVENAPGYIERVRFTPTPAEPTTVDALAENASKTAETVGAKAIIVFTETGKTAQRVSRARPVAPILSLTPDAEVARRLGLVWGAQPVQVSTVKTLDEAKKLAAETAKKYGFAKAGDKLVVVAGEPFGKAGTTNIVDVIEA
- stoichiometry N: 2
